Source: patent US20220204580A1 (AstraZeneca / MedImmune, published 2022)
Values belong to the binder of their own block, whether it stands above or below them. Numbered stars: 1 amine (or outer) side, 2 acyl side, 3 side chain; on linkers, the order of the positions; unused ones are H or OH. Bridge positions count the residues as written; N and C are the ends. Square brackets hold non-standard residues; d marks the D form. Side chains are listed from the residue outwards. Ends that are not written are not given here. * marks the point of attachment. C18 diacid = O=C(O)CCCCCCCCCCCCCCCCC(=O)*; γGlu = O=C(O)[C@H](CCC(=O)[*:2])N[*:1]; αMeF = C[C@](N)(Cc1ccccc1)C(=O)O

Key:
Experiment in all cases: cell-based or functional assay
rat calcitonin receptor = target: T1, rat calcitonin receptor (rat, UniProt P32214 25-516)
T1 sequence (looked up): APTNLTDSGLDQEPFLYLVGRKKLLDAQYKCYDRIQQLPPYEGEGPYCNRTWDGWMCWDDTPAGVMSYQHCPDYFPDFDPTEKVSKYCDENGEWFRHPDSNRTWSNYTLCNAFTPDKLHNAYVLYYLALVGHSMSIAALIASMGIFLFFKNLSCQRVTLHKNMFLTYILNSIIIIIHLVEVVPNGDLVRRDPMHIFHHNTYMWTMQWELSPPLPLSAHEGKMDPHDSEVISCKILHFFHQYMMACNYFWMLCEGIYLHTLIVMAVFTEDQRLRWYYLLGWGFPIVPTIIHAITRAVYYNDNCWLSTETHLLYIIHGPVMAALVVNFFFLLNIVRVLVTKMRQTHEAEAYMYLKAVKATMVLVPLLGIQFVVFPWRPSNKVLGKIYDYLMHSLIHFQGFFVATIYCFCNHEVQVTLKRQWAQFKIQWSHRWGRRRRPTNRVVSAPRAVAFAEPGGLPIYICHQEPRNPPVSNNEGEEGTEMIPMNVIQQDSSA

[1] = target: T2, rat amylin receptor (calcitonin receptor co-expressed with receptor activity modifying protein, RAMP3) (rat, UniProt P32214 25-516; Q9JJ73 23-147)
T2 sequence (looked up) 1: T1 sequence (looked up)
T2 sequence (looked up) 2: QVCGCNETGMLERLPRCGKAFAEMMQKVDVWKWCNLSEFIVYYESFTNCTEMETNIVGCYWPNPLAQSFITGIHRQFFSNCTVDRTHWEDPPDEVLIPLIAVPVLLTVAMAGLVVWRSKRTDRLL

[2] = target: T3, human amylin receptor (calcitonin receptor co-expressed with receptor activity modifying protein, RAMP3) (human, UniProt P30988 25-474; O60896 24-148)
T3 sequence (looked up) 1: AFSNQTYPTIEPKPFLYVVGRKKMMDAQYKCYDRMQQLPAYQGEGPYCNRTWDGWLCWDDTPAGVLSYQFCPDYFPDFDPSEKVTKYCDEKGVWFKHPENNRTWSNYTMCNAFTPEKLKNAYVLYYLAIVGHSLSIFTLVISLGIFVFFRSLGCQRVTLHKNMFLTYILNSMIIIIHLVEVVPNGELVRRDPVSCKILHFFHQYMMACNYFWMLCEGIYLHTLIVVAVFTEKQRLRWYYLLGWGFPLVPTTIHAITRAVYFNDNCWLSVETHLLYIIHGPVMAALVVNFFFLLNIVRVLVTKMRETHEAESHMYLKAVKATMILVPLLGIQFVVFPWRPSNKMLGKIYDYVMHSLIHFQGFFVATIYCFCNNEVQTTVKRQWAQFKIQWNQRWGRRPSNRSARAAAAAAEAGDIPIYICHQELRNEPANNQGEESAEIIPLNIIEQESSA
T3 sequence (looked up) 2: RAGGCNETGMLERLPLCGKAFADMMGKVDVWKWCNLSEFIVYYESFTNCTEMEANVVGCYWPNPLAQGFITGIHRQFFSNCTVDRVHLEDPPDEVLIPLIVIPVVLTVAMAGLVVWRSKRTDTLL

[3] = target: T4, human calcitonin receptor (human, UniProt P30988 25-474)
T4 sequence (looked up): T3 sequence (looked up) 1

EC50 (cAMP production) (rat calcitonin receptor): 755 pM | EC50 (cAMP production) [1]: 17.7 pM | EC50 (cAMP production) [2]: 127 pM | Ratio (EC50 hCTR / EC50 hAMYR3) [2]: 15 | EC50 (cAMP production) [3]: 1.86 nM
B1: Peptide 24 (SEQ ID NO: 24) (peptide)
peptide: K([γGlu-γGlu-C18 diacid])CNTATCATQRLANFLVHSSNN[αMeF]GPILPPTRVGSNTY-NH2
modifications: disulfide 2-7; N-terminus assumed
SMILES: CC[C@H](C)[C@H](NC(=O)[C@@H]1CCCN1C(=O)CNC(=O)[C@](C)(Cc1ccccc1)NC(=O)[C@H](CC(N)=O)NC(=O)[C@H](CC(N)=O)NC(=O)[C@H](CO)NC(=O)[C@H](CO)NC(=O)[C@H](Cc1c[nH]cn1)NC(=O)[C@@H](NC(=O)[C@H](CC(C)C)NC(=O)[C@H](Cc1ccccc1)NC(=O)[C@H](CC(N)=O)NC(=O)[C@H](C)NC(=O)[C@H](CC(C)C)NC(=O)[C@H](CCCNC(=N)N)NC(=O)[C@H](CCC(N)=O)NC(=O)[C@@H](NC(=O)[C@H](C)NC(=O)[C@@H]1CSSC[C@H](NC(=O)[C@@H](N)CCCCNC(=O)CC[C@H](NC(=O)CC[C@H](NC(=O)CCCCCCCCCCCCCCCCC(=O)O)C(=O)O)C(=O)O)C(=O)N[C@@H](CC(N)=O)C(=O)N[C@@H]([C@@H](C)O)C(=O)N[C@@H](C)C(=O)N[C@@H]([C@@H](C)O)C(=O)N1)[C@@H](C)O)C(C)C)C(=O)N[C@@H](CC(C)C)C(=O)N1CCC[C@H]1C(=O)N1CCC[C@H]1C(=O)N[C@H](C(=O)N[C@@H](CCCNC(=N)N)C(=O)N[C@H](C(=O)NCC(=O)N[C@@H](CO)C(=O)N[C@@H](CC(N)=O)C(=O)N[C@H](C(=O)N[C@@H](Cc1ccc(O)cc1)C(N)=O)[C@@H](C)O)C(C)C)[C@@H](C)O

EC50 (cAMP production) (rat calcitonin receptor): 1850 pM | EC50 (cAMP production) [1]: 10.4 pM | EC50 (cAMP production) [2]: 174 pM | Ratio (EC50 hCTR / EC50 hAMYR3) [2]: 26 | EC50 (cAMP production) [3]: 4.59 nM
B2: Peptide 20 (SEQ ID NO: 20) (peptide)
peptide: K([γGlu-γGlu-C18 diacid])CNTATCATQRLANFLRHSSNN[αMeF]GPILPPTNVGSNTY-NH2
modifications: disulfide 2-7; N-terminus assumed
SMILES: CC[C@H](C)[C@H](NC(=O)[C@@H]1CCCN1C(=O)CNC(=O)[C@](C)(Cc1ccccc1)NC(=O)[C@H](CC(N)=O)NC(=O)[C@H](CC(N)=O)NC(=O)[C@H](CO)NC(=O)[C@H](CO)NC(=O)[C@H](Cc1c[nH]cn1)NC(=O)[C@H](CCCNC(=N)N)NC(=O)[C@H](CC(C)C)NC(=O)[C@H](Cc1ccccc1)NC(=O)[C@H](CC(N)=O)NC(=O)[C@H](C)NC(=O)[C@H](CC(C)C)NC(=O)[C@H](CCCNC(=N)N)NC(=O)[C@H](CCC(N)=O)NC(=O)[C@@H](NC(=O)[C@H](C)NC(=O)[C@@H]1CSSC[C@H](NC(=O)[C@@H](N)CCCCNC(=O)CC[C@H](NC(=O)CC[C@H](NC(=O)CCCCCCCCCCCCCCCCC(=O)O)C(=O)O)C(=O)O)C(=O)N[C@@H](CC(N)=O)C(=O)N[C@@H]([C@@H](C)O)C(=O)N[C@@H](C)C(=O)N[C@@H]([C@@H](C)O)C(=O)N1)[C@@H](C)O)C(=O)N[C@@H](CC(C)C)C(=O)N1CCC[C@H]1C(=O)N1CCC[C@H]1C(=O)N[C@H](C(=O)N[C@@H](CC(N)=O)C(=O)N[C@H](C(=O)NCC(=O)N[C@@H](CO)C(=O)N[C@@H](CC(N)=O)C(=O)N[C@H](C(=O)N[C@@H](Cc1ccc(O)cc1)C(N)=O)[C@@H](C)O)C(C)C)[C@@H](C)O
